Test results taken from patent EP4692114A1, “CALCITONIN ANALOGUE, AND DERIVATIVE THEREOF AND USE THEREOF” (Hangzhou Sciwind Biosciences Co., Ltd., priority 2023, dated 2024).
*1 amine or outer side, *2 acyl side, *3 side chain or, on linkers, in order; H or OH if unused. Primed or numbered codes have the meaning given here. [ ]: non-standard residue; d: D form. The star is where a group is joined. C20 diacid = O=C(O)CCCCCCCCCCCCCCCCCCC(=O)*; C18 diacid = O=C(O)CCCCCCCCCCCCCCCCC(=O)*; γGlu = O=C(O)[C@H](CCC(=O)[*:2])N[*:1]; βAsp = O=C(O)[C@H](CC(=O)[*:2])N[*:1]; Trx′ = not defined here; AEEA = NCCOCCOCC(=O)O

B1: calcitonin derivative M26 (peptide)
peptide: {C20 diacid-γGlu}-VSQLSTVVLGRLSQELHRLQDYPRTDVGSGSP-NH2
SMILES: CC(C)C[C@H](NC(=O)[C@H](CCCNC(=N)N)NC(=O)CNC(=O)[C@H](CC(C)C)NC(=O)[C@@H](NC(=O)[C@@H](NC(=O)[C@@H](NC(=O)[C@H](CO)NC(=O)[C@H](CC(C)C)NC(=O)[C@H](CCC(N)=O)NC(=O)[C@H](CO)NC(=O)[C@@H](NC(=O)CC[C@H](NC(=O)CCCCCCCCCCCCCCCCCCC(=O)O)C(=O)O)C(C)C)[C@@H](C)O)C(C)C)C(C)C)C(=O)N[C@@H](CO)C(=O)N[C@@H](CCC(N)=O)C(=O)N[C@@H](CCC(=O)O)C(=O)N[C@@H](CC(C)C)C(=O)N[C@@H](Cc1c[nH]cn1)C(=O)N[C@@H](CCCNC(=N)N)C(=O)N[C@@H](CC(C)C)C(=O)N[C@@H](CCC(N)=O)C(=O)N[C@@H](CC(=O)O)C(=O)N[C@@H](Cc1ccc(O)cc1)C(=O)N1CCC[C@H]1C(=O)N[C@@H](CCCNC(=N)N)C(=O)N[C@H](C(=O)N[C@@H](CC(=O)O)C(=O)N[C@H](C(=O)NCC(=O)N[C@@H](CO)C(=O)NCC(=O)N[C@@H](CO)C(=O)N1CCC[C@H]1C(N)=O)C(C)C)[C@@H](C)O
B2: calcitonin derivative M43 (peptide)
peptide: {C20 diacid-βAsp}-ASQLSTAVLGRLSDELHRLQDYPRTDVGSGSP-NH2
SMILES: CC(C)C[C@H](NC(=O)[C@H](CCCNC(=N)N)NC(=O)CNC(=O)[C@H](CC(C)C)NC(=O)[C@@H](NC(=O)[C@H](C)NC(=O)[C@@H](NC(=O)[C@H](CO)NC(=O)[C@H](CC(C)C)NC(=O)[C@H](CCC(N)=O)NC(=O)[C@H](CO)NC(=O)[C@H](C)NC(=O)C[C@H](NC(=O)CCCCCCCCCCCCCCCCCCC(=O)O)C(=O)O)[C@@H](C)O)C(C)C)C(=O)N[C@@H](CO)C(=O)N[C@@H](CC(=O)O)C(=O)N[C@@H](CCC(=O)O)C(=O)N[C@@H](CC(C)C)C(=O)N[C@@H](Cc1c[nH]cn1)C(=O)N[C@@H](CCCNC(=N)N)C(=O)N[C@@H](CC(C)C)C(=O)N[C@@H](CCC(N)=O)C(=O)N[C@@H](CC(=O)O)C(=O)N[C@@H](Cc1ccc(O)cc1)C(=O)N1CCC[C@H]1C(=O)N[C@@H](CCCNC(=N)N)C(=O)N[C@H](C(=O)N[C@@H](CC(=O)O)C(=O)N[C@H](C(=O)NCC(=O)N[C@@H](CO)C(=O)NCC(=O)N[C@@H](CO)C(=O)N1CCC[C@H]1C(N)=O)C(C)C)[C@@H](C)O
B3: calcitonin derivative M12 (peptide)
peptide: {C20 diacid-γGlu}-ASQLSTAVLGRLSTELHRLQDYPRTDVGSGSP-NH2
SMILES: CC(C)C[C@H](NC(=O)[C@H](CCCNC(=N)N)NC(=O)CNC(=O)[C@H](CC(C)C)NC(=O)[C@@H](NC(=O)[C@H](C)NC(=O)[C@@H](NC(=O)[C@H](CO)NC(=O)[C@H](CC(C)C)NC(=O)[C@H](CCC(N)=O)NC(=O)[C@H](CO)NC(=O)[C@H](C)NC(=O)CC[C@H](NC(=O)CCCCCCCCCCCCCCCCCCC(=O)O)C(=O)O)[C@@H](C)O)C(C)C)C(=O)N[C@@H](CO)C(=O)N[C@H](C(=O)N[C@@H](CCC(=O)O)C(=O)N[C@@H](CC(C)C)C(=O)N[C@@H](Cc1c[nH]cn1)C(=O)N[C@@H](CCCNC(=N)N)C(=O)N[C@@H](CC(C)C)C(=O)N[C@@H](CCC(N)=O)C(=O)N[C@@H](CC(=O)O)C(=O)N[C@@H](Cc1ccc(O)cc1)C(=O)N1CCC[C@H]1C(=O)N[C@@H](CCCNC(=N)N)C(=O)N[C@H](C(=O)N[C@@H](CC(=O)O)C(=O)N[C@H](C(=O)NCC(=O)N[C@@H](CO)C(=O)NCC(=O)N[C@@H](CO)C(=O)N1CCC[C@H]1C(N)=O)C(C)C)[C@@H](C)O)[C@@H](C)O
B4: calcitonin derivative M60 (peptide)
peptide: {C20 diacid}-D[AEEA][AEEA]ASQLSTAVLGRLSEELHRLQDYPRTDVGSGSP-NH2
SMILES: CC(C)C[C@H](NC(=O)[C@H](CCCNC(=N)N)NC(=O)CNC(=O)[C@H](CC(C)C)NC(=O)[C@@H](NC(=O)[C@H](C)NC(=O)[C@@H](NC(=O)[C@H](CO)NC(=O)[C@H](CC(C)C)NC(=O)[C@H](CCC(N)=O)NC(=O)[C@H](CO)NC(=O)[C@H](C)NC(=O)COCCOCCNC(=O)COCCOCCNC(=O)[C@H](CC(=O)O)NC(=O)CCCCCCCCCCCCCCCCCCC(=O)O)[C@@H](C)O)C(C)C)C(=O)N[C@@H](CO)C(=O)N[C@@H](CCC(=O)O)C(=O)N[C@@H](CCC(=O)O)C(=O)N[C@@H](CC(C)C)C(=O)N[C@@H](Cc1c[nH]cn1)C(=O)N[C@@H](CCCNC(=N)N)C(=O)N[C@@H](CC(C)C)C(=O)N[C@@H](CCC(N)=O)C(=O)N[C@@H](CC(=O)O)C(=O)N[C@@H](Cc1ccc(O)cc1)C(=O)N1CCC[C@H]1C(=O)N[C@@H](CCCNC(=N)N)C(=O)N[C@H](C(=O)N[C@@H](CC(=O)O)C(=O)N[C@H](C(=O)NCC(=O)N[C@@H](CO)C(=O)NCC(=O)N[C@@H](CO)C(=O)N1CCC[C@H]1C(N)=O)C(C)C)[C@@H](C)O
B5: calcitonin derivative M61 (peptide)
peptide: {C20 diacid-Trx′-AEEA-AEEA}-ASQLSTAVLGRLSEELHRLQDYPRTDVGSGSP-NH2
modifications: reading uncertain
B6: calcitonin derivative M27 (peptide)
peptide: {C20 diacid-γGlu}-ISQLSTIVLGRLSQELHRLQDYPRTDVGSGSP-NH2
SMILES: CC[C@H](C)[C@H](NC(=O)CC[C@H](NC(=O)CCCCCCCCCCCCCCCCCCC(=O)O)C(=O)O)C(=O)N[C@@H](CO)C(=O)N[C@@H](CCC(N)=O)C(=O)N[C@@H](CC(C)C)C(=O)N[C@@H](CO)C(=O)N[C@H](C(=O)N[C@H](C(=O)N[C@H](C(=O)N[C@@H](CC(C)C)C(=O)NCC(=O)N[C@@H](CCCNC(=N)N)C(=O)N[C@@H](CC(C)C)C(=O)N[C@@H](CO)C(=O)N[C@@H](CCC(N)=O)C(=O)N[C@@H](CCC(=O)O)C(=O)N[C@@H](CC(C)C)C(=O)N[C@@H](Cc1c[nH]cn1)C(=O)N[C@@H](CCCNC(=N)N)C(=O)N[C@@H](CC(C)C)C(=O)N[C@@H](CCC(N)=O)C(=O)N[C@@H](CC(=O)O)C(=O)N[C@@H](Cc1ccc(O)cc1)C(=O)N1CCC[C@H]1C(=O)N[C@@H](CCCNC(=N)N)C(=O)N[C@H](C(=O)N[C@@H](CC(=O)O)C(=O)N[C@H](C(=O)NCC(=O)N[C@@H](CO)C(=O)NCC(=O)N[C@@H](CO)C(=O)N1CCC[C@H]1C(N)=O)C(C)C)[C@@H](C)O)C(C)C)[C@@H](C)CC)[C@@H](C)O
B7: calcitonin derivative M36 (peptide)
peptide: {C20 diacid-γGlu}-KSQLSTEVLGRLSQELHRLQDYPRTDVGSGSP-NH2
SMILES: CC(C)C[C@H](NC(=O)[C@H](CCCNC(=N)N)NC(=O)CNC(=O)[C@H](CC(C)C)NC(=O)[C@@H](NC(=O)[C@H](CCC(=O)O)NC(=O)[C@@H](NC(=O)[C@H](CO)NC(=O)[C@H](CC(C)C)NC(=O)[C@H](CCC(N)=O)NC(=O)[C@H](CO)NC(=O)[C@H](CCCCN)NC(=O)CC[C@H](NC(=O)CCCCCCCCCCCCCCCCCCC(=O)O)C(=O)O)[C@@H](C)O)C(C)C)C(=O)N[C@@H](CO)C(=O)N[C@@H](CCC(N)=O)C(=O)N[C@@H](CCC(=O)O)C(=O)N[C@@H](CC(C)C)C(=O)N[C@@H](Cc1c[nH]cn1)C(=O)N[C@@H](CCCNC(=N)N)C(=O)N[C@@H](CC(C)C)C(=O)N[C@@H](CCC(N)=O)C(=O)N[C@@H](CC(=O)O)C(=O)N[C@@H](Cc1ccc(O)cc1)C(=O)N1CCC[C@H]1C(=O)N[C@@H](CCCNC(=N)N)C(=O)N[C@H](C(=O)N[C@@H](CC(=O)O)C(=O)N[C@H](C(=O)NCC(=O)N[C@@H](CO)C(=O)NCC(=O)N[C@@H](CO)C(=O)N1CCC[C@H]1C(N)=O)C(C)C)[C@@H](C)O
B8: calcitonin derivative M44 (peptide)
peptide: {C18 diacid}-DASQLSTAVLGRLSDELHRLQDYPRTDVGSGSP-NH2
SMILES: CC(C)C[C@H](NC(=O)[C@H](CCCNC(=N)N)NC(=O)CNC(=O)[C@H](CC(C)C)NC(=O)[C@@H](NC(=O)[C@H](C)NC(=O)[C@@H](NC(=O)[C@H](CO)NC(=O)[C@H](CC(C)C)NC(=O)[C@H](CCC(N)=O)NC(=O)[C@H](CO)NC(=O)[C@H](C)NC(=O)[C@H](CC(=O)O)NC(=O)CCCCCCCCCCCCCCCCC(=O)O)[C@@H](C)O)C(C)C)C(=O)N[C@@H](CO)C(=O)N[C@@H](CC(=O)O)C(=O)N[C@@H](CCC(=O)O)C(=O)N[C@@H](CC(C)C)C(=O)N[C@@H](Cc1c[nH]cn1)C(=O)N[C@@H](CCCNC(=N)N)C(=O)N[C@@H](CC(C)C)C(=O)N[C@@H](CCC(N)=O)C(=O)N[C@@H](CC(=O)O)C(=O)N[C@@H](Cc1ccc(O)cc1)C(=O)N1CCC[C@H]1C(=O)N[C@@H](CCCNC(=N)N)C(=O)N[C@H](C(=O)N[C@@H](CC(=O)O)C(=O)N[C@H](C(=O)NCC(=O)N[C@@H](CO)C(=O)NCC(=O)N[C@@H](CO)C(=O)N1CCC[C@H]1C(N)=O)C(C)C)[C@@H](C)O

molecular target: T1, human amylin receptor (AMY3) on CHO-K1/Gal5/AMY3 cells (human, UniProt P30988 25-474; O60896 24-148); assay: cell-based or functional assay
T1 sequence (looked up) 1: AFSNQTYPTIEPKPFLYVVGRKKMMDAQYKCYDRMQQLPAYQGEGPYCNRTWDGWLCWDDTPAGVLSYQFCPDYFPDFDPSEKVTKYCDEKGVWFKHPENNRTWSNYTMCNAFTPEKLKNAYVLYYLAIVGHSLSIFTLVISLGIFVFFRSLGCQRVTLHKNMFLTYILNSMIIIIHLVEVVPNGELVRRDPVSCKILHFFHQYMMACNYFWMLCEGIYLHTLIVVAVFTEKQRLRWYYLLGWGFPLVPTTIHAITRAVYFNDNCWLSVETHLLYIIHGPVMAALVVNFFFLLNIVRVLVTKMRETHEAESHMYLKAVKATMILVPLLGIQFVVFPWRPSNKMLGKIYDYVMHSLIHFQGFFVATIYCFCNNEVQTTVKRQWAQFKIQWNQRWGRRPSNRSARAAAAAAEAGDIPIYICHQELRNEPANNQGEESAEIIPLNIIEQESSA
T1 sequence (looked up) 2: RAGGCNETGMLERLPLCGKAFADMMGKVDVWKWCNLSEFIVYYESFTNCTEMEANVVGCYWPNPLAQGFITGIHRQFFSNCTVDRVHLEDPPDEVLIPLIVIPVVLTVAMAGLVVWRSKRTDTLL

Binder | EC50/nM, CRE-luciferase in amylin receptor/CRE-luc CHO cells [nM]
B1 | 0.079
B2 | 0.017
B3 | 0.017
B4 | 0.016
B5 | 0.015
B6 | 0.016
B7 | 0.032
B8 | 0.016
